Reference: patent publication US20190062438A1 (CSL, published 2019)
Positions count from the first letter of the chain named. Where two headings read alike, the source gives them in different places.

Tests used:
[1] = target: T1, soluble Homo sapiens CD131 comprising a C-terminal 6xHis tag (human, UniProt P32927 17-438); assay: SPR, Fab over captured shCD131
T1 construct: truncated after Ser438, C-terminal 6xHis; also called shCD131; shβc
T1 sequence: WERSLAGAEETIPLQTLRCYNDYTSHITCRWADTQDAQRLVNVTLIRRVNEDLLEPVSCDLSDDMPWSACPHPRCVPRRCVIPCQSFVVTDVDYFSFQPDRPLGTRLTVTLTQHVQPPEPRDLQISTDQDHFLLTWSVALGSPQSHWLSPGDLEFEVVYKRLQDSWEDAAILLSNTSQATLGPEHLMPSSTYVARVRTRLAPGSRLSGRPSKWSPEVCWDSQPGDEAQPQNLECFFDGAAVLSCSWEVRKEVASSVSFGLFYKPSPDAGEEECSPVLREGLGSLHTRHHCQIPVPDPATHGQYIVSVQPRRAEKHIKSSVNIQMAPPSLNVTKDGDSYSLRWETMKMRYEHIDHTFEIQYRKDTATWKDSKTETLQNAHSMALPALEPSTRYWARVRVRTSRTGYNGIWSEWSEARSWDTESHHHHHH
Description: (§1) Binding kinetics were measured using SPR with a BIAcore™ A-100 instrument (GE Healthcare Life Sciences). An anti-C-terminal Hexa-His antibody (3H3) was immobilized on spots 1, 2, 4 and 5 of each flow cell of a CM-5 sensor chip (GE Healthcare Life Sciences) using amine-coupling chemistry (116). […] As shβc is a dimer, kinetics assays were performed with shβc captured on the sensor surface, and purified Fab injected as the analyte. Avidity effects were avoided by the use of Fab rather than whole IgG.
(§2) shCD131 was captured on spots 1 and 5 of each flow cell for 2 minutes at a concentration of 0.4 μg/ml. […] For some analysis purified Fab was injected over each flow cell for 3 minutes and dissociation was monitored for a further 10 minutes. Regeneration of the surface was performed after each cycle with a 40 second injection of 25 mM glycine, pH 2.0. The analysis was performed with Fabs at several concentrations between 100 and 0.31 nM, with each concentration analyzed twice and in random order. The analysis was performed at a flow rate of 30 μl/min in HBS-EP buffer (10 mM Hepes, 150 mM NaCl, 3 mM EDTA, 0.005% Tween 20, pH 7.4) at 37° C. Responses from spots 2 and 4 of each flow cell, (in which shβc was not captured, but otherwise treated identically), were subtracted from those of spots 1 and 5 respectively to produce reference subtracted data. Reference subtracted responses from a blank injection comprising buffer alone were subtracted from the resultant sensorgrams to produce double referenced data suitable for kinetic analysis. Double-referenced sensorgrams were fitted using non-linear regression to a model describing 1:1 kinetics, including a term for mass transport limitation. The Rₘₐₓ value was fitted locally to account for slight deviations in the level of sCD131 captured, with association rate (kₐ), dissociation rate (kd) and equilibrium dissociation constant (KD) fitted globally.

[2] = target: T1, soluble Homo sapiens CD131 comprising a …; assay: SPR, Fab over captured shCD131; remark: listed apart in the source
Description: as §1, §2

[3] = target: T1, soluble Homo sapiens CD131 comprising a …; assay: SPR, kinetics, Fab over captured shCD131
human CD131 [4] = target: T2, human CD131 (human, UniProt P32927 17-897); assay: saturation binding of radio-iodinated Fab on human neutrophils
T2 construct: on transfected FS293F cells, TF-1 cells, human neutrophils and eosinophils, there together with the cytokine-specific alpha chains; also called hCD131; βc
T2 sequence: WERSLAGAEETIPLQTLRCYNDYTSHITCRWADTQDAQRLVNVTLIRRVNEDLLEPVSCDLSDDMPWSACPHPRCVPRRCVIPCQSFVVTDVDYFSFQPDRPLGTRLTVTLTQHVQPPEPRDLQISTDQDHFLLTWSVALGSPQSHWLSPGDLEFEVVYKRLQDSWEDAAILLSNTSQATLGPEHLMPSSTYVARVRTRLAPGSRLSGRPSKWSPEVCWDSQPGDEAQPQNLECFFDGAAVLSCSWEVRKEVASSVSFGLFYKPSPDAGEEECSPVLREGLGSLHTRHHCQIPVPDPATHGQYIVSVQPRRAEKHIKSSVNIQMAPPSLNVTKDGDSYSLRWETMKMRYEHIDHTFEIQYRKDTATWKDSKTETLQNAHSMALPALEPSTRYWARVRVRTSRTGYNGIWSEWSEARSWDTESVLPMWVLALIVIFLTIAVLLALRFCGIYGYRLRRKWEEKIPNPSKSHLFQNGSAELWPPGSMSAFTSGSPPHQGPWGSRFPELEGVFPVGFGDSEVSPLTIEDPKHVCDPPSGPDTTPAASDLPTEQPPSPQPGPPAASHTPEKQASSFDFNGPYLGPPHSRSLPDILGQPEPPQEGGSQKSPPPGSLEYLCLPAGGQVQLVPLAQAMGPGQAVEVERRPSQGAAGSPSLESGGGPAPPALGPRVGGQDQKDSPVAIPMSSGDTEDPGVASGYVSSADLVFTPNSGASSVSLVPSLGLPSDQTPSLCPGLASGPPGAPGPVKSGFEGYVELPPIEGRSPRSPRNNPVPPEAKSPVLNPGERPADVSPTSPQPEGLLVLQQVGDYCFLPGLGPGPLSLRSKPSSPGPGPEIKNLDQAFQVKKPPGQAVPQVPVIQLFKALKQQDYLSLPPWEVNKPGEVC
Description: Each point is the mean of duplicate determinations of cell-bound radio-iodinated antibody after subtraction of non-specific binding. Data from a single neutrophil binding experiment and a representative eosinophil binding experiment, n=2 is shown.
Cytokines and antibodies were radio-iodinated using Pierce Pre-Coated Iodination tubes (Thermo Scientific) according to the manufacturer's instructions. MAb binding to cells expressing hβc was determined by incubating 1-2×10⁶ cells with radio-iodinated mAb at a range of concentrations at 23° C. for 1-2 hours with gentle mixing. Cell suspensions were then centrifuged through fetal calf serum (FCS) and radioactivity associated with the cells pellets was assessed by counting in a Wizard² 2470 Automatic Gamma Counter (Perkin Elmer, Rowville, VIC, Australia). Non-specific binding was assessed for each radio-iodinated mAb in the presence of at least a 500-fold excess of unlabeled mAb. […] Competition binding assays were performed essentially as previously described (41). Briefly 1-2×10⁶ cells were incubated with mAb or cytokine competitor at a range of concentrations at 4° C. for 45 minutes with gentle mixing. […] Cell suspensions were then centrifuged through FCS and radioactivity associated with the cells pellets assessed by counting.

human CD131 [5] = target: T2, human CD131; assay: saturation binding of radio-iodinated Fab to TF1 cells (first of three values in the cell)
Description: (§3) Cytokines and antibodies were radio-iodinated using Pierce Pre-Coated Iodination tubes (Thermo Scientific) according to the manufacturer's instructions. MAb binding to cells expressing hβc was determined by incubating 1-2×10⁶ cells with radio-iodinated mAb at a range of concentrations at 23° C. for 1-2 hours with gentle mixing. Cell suspensions were then centrifuged through fetal calf serum (FCS) and radioactivity associated with the cells pellets was assessed by counting in a Wizard² 2470 Automatic Gamma Counter (Perkin Elmer, Rowville, VIC, Australia). Non-specific binding was assessed for each radio-iodinated mAb in the presence of at least a 500-fold excess of unlabeled mAb. […] Competition binding assays were performed essentially as previously described (41). Briefly 1-2×10⁶ cells were incubated with mAb or cytokine competitor at a range of concentrations at 4° C. for 45 minutes with gentle mixing. Radio-iodinated cytokine or mAb was then added and the mixture incubated at 23° C. for a further 1-2 hours with gentle mixing. Cell suspensions were then centrifuged through FCS and radioactivity associated with the cells pellets assessed by counting.

human CD131 [6] = target: T2, human CD131; assay: saturation binding of radio-iodinated Fab to TF1 cells (third of three values in the cell)
Description: as §3

human CD131 [7] = target: T2, human CD131; assay: saturation binding of radio-iodinated Fab to TF1 cells (second of three values in the cell)
Description: as §3

human CD131 [8] = target: T2, human CD131; assay: saturation binding of radio-iodinated Fab to cells; row 'Average for all cells (±SEM)' (neutrophils, TF1 cells)
human CD131 [9] = target: T2, human CD131; assay: cell-based or functional assay
human CD131 [10] = target: T2, human CD131; assay: cell-based or functional assay; remark: listed apart in the source
human CD131 [11] = target: T2, human CD131; assay: cell-based or functional assay; remark: listed apart in the source
human CD131 [12] = target: T2, human CD131; assay: competition binding on TF-1 cells: cells pre-incubated with the cytokine, then equilibrated with 85 pM radio-iodinated 9A2-VR24.29; cell-bound c.p.m.
Description: Each point is the mean of duplicate determinations of cell-bound radioiodinated cytokine and error bars represent the standard deviation.
as §3

B1: 9A2-VR24 Fab (Fab, V domains shown)
VH: EVQLLESGGGLVQPGGSLRLSCAASGFTFPWYRVHWVRQAPGKGLEWVSSIRSSGGFTYYADSVKGRFTISRDNSKNTLYLQMNSLRAEDTAVYYCARFYDSFFDIWGQGTMVTVSS
VL: DIQMTQSPSSVSASVGDRVTITCRASQGISSWLAWYQQKPGKAPKLLIYAASSLQSGVPSRFSGSGSGTDFTLTISSLQPEDFATYYCQQANSFPITFGQGTRLEIKR
notes: recombinant Fab
For B1, the Kd [1] was 0.46 nM, the “fold decrease in dissociation rate (kd) compared to parental 9A2” value [1] was 87 fold and the “fold decrease in the dissociation rate (kd) compared to parental 9A2” value [1] was 87 fold. The “fold higher affinity compared to parental 9A2” value [1] was 106 fold, the koff [1] was 0.0011 s⁻¹ and the kon [1] was 2.3e+06 M⁻¹ s⁻¹. For the same binder, the Kd [2] was 0.46 nM, the koff [2] was 0.0011 s⁻¹ and the kon [2] was 2.3e+06 M⁻¹ s⁻¹.

B2: 9A2-VR24.29 Fab (Fab, V domains shown)
VH: B1 VH with T58P, A61N, D62Y, S63K
VL: B1 VL
notes: recombinant Fab; also called recombinant Fab fragment of 9A2-VR24.29
In the case of B2, the Kd [2] is reported as 0.1 nM, the koff [2] is reported as 0.000418 s⁻¹ and the kon [2] is reported as 4e+06 M⁻¹ s⁻¹. The Kd [3] was 0.1 nM, the Kd (human CD131 [4]) was 0.384 nM and the Kd (human CD131 [5]) was 0.656 nM. The Kd (human CD131 [6]) was 0.522 nM, the Kd (human CD131 [7]) was 0.668 nM and the Kd (human CD131 [8]) was 0.569 nM.

B3: 9A2-VR39 Fab (Fab, V domains shown)
VH: B1 VH with P30S, W31H, R33H, V34M, H35L, R52N, S53G, S54R, G56R, F57V
VL: B1 VL
notes: recombinant Fab
With B3 the Kd [1] was 0.27 nM, the “fold improvement in binding affinity over parental 9A2” value [1] was roughly 180 fold and the koff [1] was 0.00059 s⁻¹. It also gave a kon [1] of 3e+06 M⁻¹ s⁻¹, a Kd [2] of 0.27 nM and a koff [2] of 0.00059 s⁻¹. The kon [2] was 3e+06 M⁻¹ s⁻¹.

B4: 9A2-VR44 Fab (Fab, V domains shown)
VH: B1 VH with P30S, W31H, R33H, V34M, H35L, F103H
VL: B1 VL
notes: recombinant Fab
B4 was tested, and the Kd [1] was 5 nM.

B5: 9A2-VR24 (antibody, V domains shown)
VH: B1 VH
VL: B1 VL
B5 was tested, and the “fold potency improvement (GM-CSF) over parental 9A2” value (human CD131 [9]) was 182 fold, the “IC50 GM-CSF, TF-1 proliferation” value (human CD131 [10]) was 2.5 nM and the “IC50 IL-3, TF-1 proliferation” value (human CD131 [10]) was 0.726 nM. For the same binder, the “IC50 IL-5, TF-1 proliferation” value (human CD131 [10]) was 23.5 nM, the “pStat5 IC50 GM-CSF, TF-1 bla reporter” value (human CD131 [10]) was 8.6 nM and the “IC50 GM-CSF, TF-1 proliferation” value (human CD131 [11]) was 2.5 nM.

B6: 9A2-VR39 (antibody, V domains shown)
VH: B1 VH with P30S, W31H, R33H, V34M, H35L, R52N, S53G, S54R, G56R, F57V
VL: B1 VL
For B6, the “fold improvement in GM-CSF potency over parental 9A2” value (human CD131 [9]) was 518 fold, the “IC50 GM-CSF, TF-1 proliferation” value (human CD131 [10]) was 0.88 nM and the “pStat5 IC50 GM-CSF, TF-1 bla reporter” value (human CD131 [10]) was 4.1 nM. The “IC50 GM-CSF, TF-1 proliferation” value (human CD131 [11]) was 0.88 nM.

B7: recombinant human GM-CSF (ligand, UniProt P04141 18-144, looked up)
chain: APARSYYSPSTQPWEHVNAIQEARRLLNLSRDTAAEMNETVEVISEMFDLQEPTCLQTRLELYKQGLRGSLTKLKGPLTMMASHYKQHCPPTPETSCATQIITFESFKENLKDFLLVIPFDCWEPVQE
modifications: radio-iodinated where used as label
notes: position probably counts on mature GM-CSF
With B7 the “IC50 (read off the curve)” value (human CD131 [12]) was roughly 0.03 nM.
